Results reported in publication PMC9828637, “Pol32, an accessory subunit of DNA polymerase delta, plays an essential role in genome stability and pathogenesis of Candida albicans” (Gut Microbes, 2023).

Target: T1, CaPol32 (wild type, GST tag cleaved) (C. albicans, UniProt A0A1D8PDM8 1-403)
T1 construct: Pol32, smallest subunit of DNA polymerase delta, C. albicans SC5314; ORF amplified from genomic DNA with primers NAP39 (start codon) and NAP40 (stop codon); length 403 aa, 46.0 kDa; source: S. cerevisiae protease deficient strain, purified (glutathione-Sepharose 4B, GST cleaved with PreScission protease); not shown: GST, N-terminal, cleaved
T1 sequence (looked up): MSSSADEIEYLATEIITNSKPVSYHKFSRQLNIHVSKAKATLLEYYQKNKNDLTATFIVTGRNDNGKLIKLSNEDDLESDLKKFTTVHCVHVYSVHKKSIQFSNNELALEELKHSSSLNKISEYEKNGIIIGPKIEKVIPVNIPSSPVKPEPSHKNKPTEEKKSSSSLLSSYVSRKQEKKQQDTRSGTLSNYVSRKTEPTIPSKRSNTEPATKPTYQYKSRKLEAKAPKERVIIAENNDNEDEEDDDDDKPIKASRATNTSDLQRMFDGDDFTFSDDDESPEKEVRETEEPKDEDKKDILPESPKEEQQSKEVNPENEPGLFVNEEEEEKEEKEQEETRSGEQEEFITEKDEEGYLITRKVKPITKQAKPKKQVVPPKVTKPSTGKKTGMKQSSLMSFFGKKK
Assay: ITC; MicroCal PEAQ-ITC, 25°C, 20 mM HEPES pH 7.4, 150 mM NaCl; 20 μM CaPol32 or CaPol32 (F398A, F399A) in the cell, 250 μM CaPCNA in the syringe, 25 injections of 1.5 μl; one-site binding model
Settings: both partners purified

B1: CaPCNA (natural protein, C. albicans, UniProt Q5AMN0 1-259, looked up)
chain: MLEGKFEEAALLKKVVEAIKDCVKKCNFNCSEHGITVQAVDDSRVLLVSLLIGQTSFSEYRCDRDVTLGIDLESFSKIIKSANNEDFLTLLAEDSPDQIMAILEEKQKEKISEYSLKLMDIDSEFLQIDDMEYDAVVNMPSSDFAKLVRDLKNLSESLRVVVTKDSVKFTSEGDSGSGSVILKPYTNLKNERESVTISLDDPVDLTFGLKYLNDIVKAATLSDVITIKLADKTPALFEFKMQSGGYLRFYLAPKFDDDE
notes: PCNA (proliferating cell nuclear antigen, DNA sliding clamp), C. albicans; it calls PCNA trimeric without measuring this here; also called proliferating cell nuclear antigen of C. albicans; source: E. coli BL21 DE3, purified (glutathione-Sepharose 4B, GST cleaved with PreScission protease)
- Kd: ~6.75 µM
- dH: ~-27 kcal/mol
- stoichiometry N: 1 CaPol32 per PCNA trimer
